The target of assay [1] is T1, human BTN3A1 expressed on HEK293 cells (human, UniProt O00481 30-513).
T1 construct: whole, on cells; also called BTN3A1-expressing HEK293 cells; human BTN3A1-overexpressing cells
The assay can be described thus: flow cytometry, HEK293 cells overexpressing human BTN3A1. A general note: In flow cytometry, cells or beads pass a laser one at a time.

Assay [2] concerns the target T1, human BTN3A1 expressed on HEK293 cells. The assay is described as follows: flow cytometry, HEK293 cells (endogenous BTN3A knocked out) overexpressing human BTN3A1.
Assay [3] concerns the target T2, human BTN3A1 recombinant protein with his tag (h-BTN3A1-his) (human, UniProt O00481 30-254).
T2 construct: range 30-254; Bought from Kactus; also called human BTN3A1 antigen protein (Kactus Biosystems, BTN-HM1A1); not shown: his tag
The assay is described as follows: SPR Biacore 8K, antibody captured on Protein A chip, BTN3A1 as analyte, 1:1 Langmuir fit. (In general: Surface plasmon resonance follows binding to a sensor surface in real time, without labels.)

Assay [4] deals with T3, human BTN3A3 overexpressed on HEK293 cells (human, UniProt O00478 30-584).
T3 construct: whole, on cells; HEK293 cells with endogenous BTN3A knocked out; also called human BTN3A3-overexpressing cells
T3 sequence (O00478 30-584): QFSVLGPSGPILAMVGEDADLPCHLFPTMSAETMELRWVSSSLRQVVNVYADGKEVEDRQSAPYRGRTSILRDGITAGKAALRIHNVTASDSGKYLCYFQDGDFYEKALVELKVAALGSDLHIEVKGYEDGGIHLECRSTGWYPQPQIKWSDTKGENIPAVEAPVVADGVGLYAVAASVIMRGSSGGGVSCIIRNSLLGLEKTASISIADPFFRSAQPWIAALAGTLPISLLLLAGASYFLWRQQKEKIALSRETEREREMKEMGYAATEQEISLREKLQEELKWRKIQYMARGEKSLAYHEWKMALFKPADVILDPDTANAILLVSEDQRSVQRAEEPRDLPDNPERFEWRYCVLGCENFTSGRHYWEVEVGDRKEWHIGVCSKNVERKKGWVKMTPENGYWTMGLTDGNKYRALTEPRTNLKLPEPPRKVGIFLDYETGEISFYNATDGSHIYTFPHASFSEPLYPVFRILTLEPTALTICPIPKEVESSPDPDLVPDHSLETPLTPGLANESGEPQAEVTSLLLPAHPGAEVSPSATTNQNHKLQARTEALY
The assay can be described thus: flow cytometry, HEK293 cells (endogenous BTN3A knocked out) overexpressing human BTN3A3.

The target of assay [5] is T4, human BTN3A2 overexpressed on HEK293 cells (human, UniProt P78410 30-334).
T4 construct: whole, on cells; HEK293 cells with endogenous BTN3A knocked out; also called human BTN3A2-overexpressing cells
T4 sequence (P78410 30-334): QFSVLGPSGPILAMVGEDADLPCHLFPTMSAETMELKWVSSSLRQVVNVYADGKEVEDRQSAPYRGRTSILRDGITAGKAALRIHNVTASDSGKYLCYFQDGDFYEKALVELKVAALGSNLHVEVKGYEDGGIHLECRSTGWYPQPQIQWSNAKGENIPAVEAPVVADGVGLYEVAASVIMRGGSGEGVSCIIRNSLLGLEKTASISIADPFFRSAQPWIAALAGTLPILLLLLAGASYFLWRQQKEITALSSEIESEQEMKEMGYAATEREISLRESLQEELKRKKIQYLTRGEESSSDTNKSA
The assay is described as follows: flow cytometry, HEK293 cells (endogenous BTN3A knocked out) overexpressing human BTN3A2.

For assay [6], the target named is T2, human BTN3A1 recombinant protein with …. The assay can be described thus: ELISA, plate coated with h-BTN3A1-his, antibody titrated. In general terms: In an ELISA, binding on a coated surface is turned into a signal by an enzyme label.
The target in assay [7] is T1, human BTN3A1 expressed on HEK293 cells. The assay is described as follows: flow cytometry, HEK293 cells (endogenous BTN3A knocked out) overexpressing human BTN3A1. This is another data set of the same source.
The target in assay [8] is T2, human BTN3A1 recombinant protein with …. The assay is described as follows: SPR Biacore 8K, antibody captured on Protein A chip, BTN3A1 as analyte, 1:1 Langmuir fit. This is another data set of the same source.

Where two headings read alike, the source gives them in different places.

T2 sequence (O00481 30-254 limits assumed): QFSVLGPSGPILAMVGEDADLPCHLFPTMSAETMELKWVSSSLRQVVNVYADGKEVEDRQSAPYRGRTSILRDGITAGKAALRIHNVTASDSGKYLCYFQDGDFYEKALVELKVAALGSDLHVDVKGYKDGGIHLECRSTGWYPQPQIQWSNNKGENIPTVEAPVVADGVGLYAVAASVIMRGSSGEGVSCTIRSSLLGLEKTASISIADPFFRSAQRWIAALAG
T1 sequence (O00481 30-513): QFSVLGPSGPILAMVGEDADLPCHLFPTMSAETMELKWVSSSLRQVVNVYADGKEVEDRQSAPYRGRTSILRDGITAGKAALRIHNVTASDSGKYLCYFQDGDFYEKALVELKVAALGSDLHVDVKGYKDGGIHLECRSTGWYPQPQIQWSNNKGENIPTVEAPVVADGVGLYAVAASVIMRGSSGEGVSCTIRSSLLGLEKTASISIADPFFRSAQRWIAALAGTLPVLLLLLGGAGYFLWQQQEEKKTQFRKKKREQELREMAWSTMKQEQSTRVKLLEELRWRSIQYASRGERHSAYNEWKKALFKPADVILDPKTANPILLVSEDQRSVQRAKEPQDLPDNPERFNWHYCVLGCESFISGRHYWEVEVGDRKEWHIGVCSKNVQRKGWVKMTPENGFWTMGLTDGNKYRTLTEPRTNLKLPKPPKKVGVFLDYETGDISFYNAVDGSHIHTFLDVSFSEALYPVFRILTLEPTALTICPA

B1: 17G4-H5L3 (antibody, human IgG1, kappa, V domains shown)
VH: EQQLVESGGGLVQPGGSLRLSCAASGFSLNDYYITWVRQAPGKGLEWIGVIYGSSNTVYASWAKGRFTISKTSTMVYLQMNSLRAEDTAVYFCARGYLASSADIWGQGTLVTVSS
VL: DQQLTQSPSSLSASVGDRVTITCQSSQSVYNNNRLAWYQQKPGKPPKLLIYDASTLASGVPSRFSGSGSGTDFTLTISSLQPEDVATYYCQTYYSGYIWAFGGGTKVEIKR
notes: Humanized; human IgG1 constant region with L234F/L235E/P331S and human Ckappa; also called 17G4's humanized antibody
B1: in assay [1], the EC50 was 19.8 nM and the “Max FACS mean fluorescence intensity (MFI)” value is 89700 MFI.

B2: 20A3-H2L2 (antibody, human IgG1, kappa, V domains shown)
VH: EVQLVESGGGLVQPGGSLRLSCAASGFTINNYYMNWVRQAPGKGLEWVSIIYGSDNTYYASWAKGRFTISKDNSKNTVYLQMNSLRAEDTAVYYCVRNLDYSSAYFHIWGQGTLVTVSS
VL: DIQLTQSPSSLSASVGDRVTITCQASQSVYNNNRLAWYQQKPGKPPKLLIYEASKLASGVPSRFSGSGSGTDFTLTISSLQPEDVATYYCQGYYSGFIYPFGGGTKVEIKR
notes: Humanized; human IgG1 constant region with L234F/L235E/P331S and human Ckappa; also called 20A3's humanized antibody
With B2, the EC50 in assay [2] came to 2.98 nM. Besides, in assay [3], the Kd came to 0.174 nM, the koff is 0.000172 s⁻¹ and the kon stood at 985000 M⁻¹ s⁻¹. Also, in assay [4], the EC50 turned out to be 5.12 nM. For the same molecule, in assay [1], the EC50 was 10.2 nM and the “Max FACS mean fluorescence intensity (MFI)” value amounted to 91200 MFI. Besides, in assay [5], the EC50 turned out to be 6.76 nM.

B3: 20A3 (a human-rabbit chimeric antibody, parent) (antibody, human IgG1, kappa, V domains shown)
VH: QSVEESGGRLVTPGTPLTLTCTASGFTINNYYMNWVRQAPGKGLEWIGIIYGSDNTYYASWAKGRFTISKTSTTVDLIMTSPTTEDTATYFCVRNLDYSSAYFHIWGPGTLVTVSS
VL: QVLTQTPSPVSAAVGGTVSISCQASQSVYNNNRLAWYQQKPGQPPNLLIYEASKLASGVPSRFKGSGSGTQFTLIISEVQCEDAATYYCQGYYSGFIYPFGGGTEVVVKR
notes: Rabbit variable regions on the human IgG1 constant region with L234F/L235E/P331S (Eu numbering) and human Ckappa
As for B3, the EC50 in assay [6] came to 0.0196 nM. The EC50 in assay [7] amounted to 8.2 nM. In addition, in assay [8], the Kd was found to be 0.174 nM, the koff was determined as 0.000172 s⁻¹ and the kon was determined as 985000 M⁻¹ s⁻¹. In assay [1], the midpoint of the response, the EC50, lay at 11.7 nM and the “Max FACS mean fluorescence intensity (MFI)” value was found to be 95800 MFI.

B4: 17G4 (a human-rabbit chimeric antibody, parent) (antibody, human IgG1, kappa, V domains shown)
VH: QSLEESGGRLVTPGTPLTLTCTASGFSLNDYYITWVRQAPGKGLEWIGVIYGSSNTVYASWAKGRFTISKTSTMVDLRITSPTTEDTATYFCARGYLASSADIWGPGTLVTVSL
VL: QVLTQTPSPVSAAVGGTVTINCQSSQSVYNNNRLAWYQQKPGQPPKLLIYDASTLASGVPSRFKGSGSGTDFTLTISDLECADAATYYCQTYYSGYIWAFGGGTEVVVKR
notes: as for B3
In the case of B4, in assay [6], the EC50 was 0.0228 nM. A half-maximal response in assay [7] (EC50) required 15.4 nM. Besides, in assay [8], the Kd amounted to 0.228 nM, the koff stood at 0.000182 s⁻¹ and the kon was 800000 M⁻¹ s⁻¹. Also, in assay [1], the EC50 is 17.4 nM and the “Max FACS mean fluorescence intensity (MFI)” value was found to be 98000 MFI.

As a reminder, the EC50 is the concentration giving half of the maximal effect. Usually Kd stands for the constant that tells how readily two partners part at equilibrium. The term koff denotes the rate constant with which the complex falls apart. For orientation: kon means the second-order rate constant of association.

(Values after EP4755916A1 (Jiangsu Hengrui Pharmaceuticals Co., Ltd., dated 2026).)
